From article doi:10.1101/2024.01.03.573903v1

Substrate: Nc1ncnc2c1ncn2[C@@H]1O[C@H](COP(=O)(O)OP(=O)(O)OP(=O)(O)O)[C@@H](O)[C@H]1O
Assay: malachite green phosphate release NTPase assay
Format: biochemical, Zika virus
Settings: no curcumin, 1% DMSO, 80 nM enzyme, Tris pH 7.4, 25 °C

B1: ZIKV NS3 helicase (Zika virus) (protein)
chain: PVECFEPSMLKKKQLTVLDLHPGAGKTRRVLPEIVREAIKKRLRTVILAPTRVVAAEMEEALRGLPVRYMTTAVNVTHSGTEIVDLMCHATFTSRLLQPIRVPNYNLNIMDEAHFTDPSSIAARGYISTRVEMGEAAAIFMTATPPGTRDAFPDSNSPIMDTEVEVPERAWSSGFDWVTDHSGKTVWFVPSVRNGNEIAACLTKAGKRVIQLSRKTFETEFQKTKNQEWDFVITTDISEMGANFKADRVIDSRRCLKPVILDGERVILAGPMPVTHASAAQRRGRIGRNPNKPGDEYMYGGGCAETDEGHAHWLEARMLLDNIYLQDGLIASLYRPEADKVAAIEGEFKLRTEQRKTFVELMKRGDLPVWLAYQVASAGITYTDRRWCFDGTTNNTIMEDSVPAEVWTKYGEKRVLKPRWMDARVCSDHAALKSFKEFAAGKR
B1 gave a Km of 336.3 ± 61.97 µM and a kcat of 1.025 ± 0.06 s⁻¹.
